Experiment [1] addresses T1, recombinant human LAG3 expressed with a C-terminal myc-myc-hexahistidine tag (human, UniProt P18627 29-450).
T1 construct: also called hLAG3-mmh; hLAG3.mmh
Description: SPR, mAb captured, 25 C. How it is done:
(§1) The BiaCore sensor surface was derivatized with either a polyclonal rabbit anti-mouse antibody (GE, # BR-1008-38) or with a monoclonal mouse anti-human Fc antibody (GE, # BR-1008-39) to capture approximately 50-85 RUs of anti-LAG3 monoclonal antibodies, expressed with either a mouse Fc or a human Fc, respectively. […] The binding of the LAG3 reagents to captured monoclonal antibodies was monitored for 4 minutes while their dissociation from the antibodies was monitored for 8 minutes in HBST running buffer (0.01 M HEPES pH 7.4, 0.15 M NaCl, 3 mM EDTA, 0.05% v/v Surfactant P20). Experiments were performed at 25° C. and 37° C. Kinetic association (kₐ) and dissociation (kd) rate constants were determined by processing and fitting the data to a 1:1 binding model using Scrubber 2.0c curve fitting software. Binding dissociation equilibrium constants (KD) and dissociative half-lives (t_{1/2}) were then calculated from the kinetic rate constants as: KD (M)=kd/kₐ and t_{1/2} (min)=[ln2/(60*kd)].

Experiment [2] addresses T2, recombinant human LAG3 expressed with a C-terminal mouse IgG2a mFc tag (human).
T2 construct: Called dimeric; also called hLAG3-mFc; hLAG3 dimer
T2 chain: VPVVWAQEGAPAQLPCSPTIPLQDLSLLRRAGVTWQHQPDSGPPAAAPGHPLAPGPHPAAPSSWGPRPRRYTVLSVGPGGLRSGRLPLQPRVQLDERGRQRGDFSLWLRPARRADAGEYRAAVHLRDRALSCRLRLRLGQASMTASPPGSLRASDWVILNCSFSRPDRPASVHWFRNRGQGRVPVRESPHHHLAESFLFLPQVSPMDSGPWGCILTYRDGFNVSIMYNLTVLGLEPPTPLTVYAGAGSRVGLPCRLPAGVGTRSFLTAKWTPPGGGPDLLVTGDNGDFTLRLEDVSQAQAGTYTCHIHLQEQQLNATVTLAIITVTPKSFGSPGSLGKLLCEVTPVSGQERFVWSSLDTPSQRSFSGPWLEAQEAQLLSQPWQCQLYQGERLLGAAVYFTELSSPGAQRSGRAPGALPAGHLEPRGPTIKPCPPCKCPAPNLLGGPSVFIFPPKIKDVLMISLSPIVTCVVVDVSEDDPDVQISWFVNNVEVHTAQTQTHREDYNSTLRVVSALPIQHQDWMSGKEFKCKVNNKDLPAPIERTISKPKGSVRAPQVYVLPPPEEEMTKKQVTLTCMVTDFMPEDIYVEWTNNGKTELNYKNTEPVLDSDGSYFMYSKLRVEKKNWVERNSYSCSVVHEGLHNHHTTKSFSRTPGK
The experiment can be described thus: SPR, mAb captured, 25 C. Here is the method:
as §1
(In general: SPR reads the build-up and loss of mass on a sensor chip optically.)

Experiment [3] deals with T3, human LAG3 expressed on HEK293 cells (human, UniProt P18627 23-525).
T3 construct: also called hLAG3; HEK293/hLAG3
T3 sequence: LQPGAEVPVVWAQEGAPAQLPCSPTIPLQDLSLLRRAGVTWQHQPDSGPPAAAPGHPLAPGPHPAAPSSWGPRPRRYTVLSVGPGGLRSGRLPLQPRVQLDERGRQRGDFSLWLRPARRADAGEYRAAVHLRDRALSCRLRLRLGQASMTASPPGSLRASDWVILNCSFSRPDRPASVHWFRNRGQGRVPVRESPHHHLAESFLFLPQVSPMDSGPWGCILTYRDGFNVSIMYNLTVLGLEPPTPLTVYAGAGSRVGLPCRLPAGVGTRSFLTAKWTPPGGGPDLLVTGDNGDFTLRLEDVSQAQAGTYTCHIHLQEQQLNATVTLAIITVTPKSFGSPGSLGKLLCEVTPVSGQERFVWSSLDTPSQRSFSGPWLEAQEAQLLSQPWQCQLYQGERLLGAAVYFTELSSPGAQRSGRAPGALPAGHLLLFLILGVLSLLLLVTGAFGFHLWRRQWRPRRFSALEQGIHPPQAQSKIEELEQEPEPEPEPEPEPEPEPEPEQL
The experiment can be described thus: flow cytometry, HEK293/hLAG3 cells. Here is the method: The serially diluted antibodies were added to the cell suspension and incubated for 15-30 minutes on ice. The cells were centrifuged and pellets were washed with staining buffer to remove unbound antibodies. […] The cells were centrifuged and pellets were washed with staining buffer to remove unbound secondary F(ab′)2 and fixed overnight with a 1:1 dilution of Cytofix (BD Biosciences, #554655) and staining buffer. Following day, fixed cells were centrifuged and pellets were washed with staining buffer, resuspended and filtered. Fluorescence measurements were acquired on HyperCyt® cytometer and analyzed in ForeCyt™ (IntelliCyt; Albuquerque, N. Mex.) to determine the mean fluorescence intensities (MFI). The EC₅₀ values were calculated from a four-parameter logistic equation over an 11-point response curve using GraphPad Prism. EC₅₀ was defined as the concentration of antibody at which 50% of maximal binding signal is detected. The MFI ratio for each antibody was calculated by dividing the MFI at 100 nM by MFI at 0 nM of antibody concentration.

The target of experiment [4] is T3, human LAG3 expressed on HEK293 cells. The experiment can be described thus: electrochemiluminescence cell binding. How it is done:
To investigate the ability of a panel of anti-LAG3 monoclonal antibodies to bind cell-surface expressed LAG3, an in vitro binding assay utilizing human and monkey LAG3 expressing cell lines in an electrochemiluminescence based detection platform [Meso Scale Diagnostics, Rockville, Md.—(MSD)] was developed.
Experiments were carried out according to following procedure. Cells from the three cell lines described above were rinsed once in 1×PBS buffer without Ca²⁺/Mg²⁺ followed by 10-minute incubation at 37° C. with Enzyme Free Cell Dissociation Solution. […] Approximately 10,000 cells per well in the cell-washing buffer were seeded into the 96-well carbon electrode plates (MULTI-ARRAY high bind plate, MSD) and incubated for 1 hour at 37° C. to allow the cells to adhere. Nonspecific binding sites were blocked by 2% BSA (w/v) in PBS for 1 hour at room temperature. […] The plates were then washed to remove the unbound antibodies using an AquaMax2000 plate washer (MDS Analytical Technologies). The plate-bound antibodies were detected with a SULFO-TAG™-conjugated anti-human IgG antibody (MSD) for 1 hour at room temperature. After washes, the plates were developed with the Read Buffer (MSD) according to manufacturer's recommended procedure and the luminescent signals were recorded with a SECTOR Imager 6000 (MSD) instrument. The direct binding signals (in relative light units—RLU) were analyzed as a function of the antibody concentration and the data were fitted with a sigmoidal (four-parameter logistic) dose-response model using Graph Pad Prism™ software. The potency of each antibody was determined by calculating EC₅₀.

T1 sequence (P18627 other isoform, or with tags, fused parts or gaps limits assumed): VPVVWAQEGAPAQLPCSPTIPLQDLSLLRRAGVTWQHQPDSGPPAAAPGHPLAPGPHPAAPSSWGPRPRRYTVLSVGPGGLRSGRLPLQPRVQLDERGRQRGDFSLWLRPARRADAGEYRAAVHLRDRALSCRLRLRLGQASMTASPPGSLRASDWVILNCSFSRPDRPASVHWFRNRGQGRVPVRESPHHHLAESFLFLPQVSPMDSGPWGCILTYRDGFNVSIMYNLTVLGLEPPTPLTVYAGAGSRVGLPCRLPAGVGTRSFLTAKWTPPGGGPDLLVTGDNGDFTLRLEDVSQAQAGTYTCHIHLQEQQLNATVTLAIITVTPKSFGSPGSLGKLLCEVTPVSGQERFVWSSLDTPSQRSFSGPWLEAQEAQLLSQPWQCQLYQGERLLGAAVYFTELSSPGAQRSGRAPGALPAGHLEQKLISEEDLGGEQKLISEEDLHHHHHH

B1: H4sH15479P (antibody, V domains shown)
VH: QVQLQQWGAGLLNPSETLSLTCAVYGGAFSDYYWNWIRQPPGKGLEWIGEINHRGSTNYNPSLKSRVTISVDTSKNQFSLRMSSVTAADAAVYYCARGEDYDIWNGYYQEKWGQGTLVTVSS
VL: EIVLTQSPATLSLSPGERATLSCRASQSISTYLAWYQQKPGQAPRLLIYDASKRATGIPARFSGSGSGTDFTLTISSLEPEDFVVYYCHQRSNWPLTFGGGTKVEIK
By Kd is commonly meant the equilibrium constant for the complex coming apart. One may read the koff as the rate constant with which the complex falls apart. As a reminder, the kon is the second-order rate constant of association. As usually defined, the EC50 is the concentration that produces a half-maximal response. A low value points to greater potency. Regarding B1, in experiment [1], the dissociation constant (Kd) worked out at 0.0487 nM, the off-rate constant (koff) came to 5.98e-05 s⁻¹, the on-rate (kon) is 1.23e+06 M⁻¹ s⁻¹ and the t1/2 stood at 3.22 h. Moreover, in experiment [2], the Kd is ≤ 0.00328 nM, the off-rate (koff) was ≤ 1e-05 s⁻¹, the kon amounted to 3.05e+06 M⁻¹ s⁻¹ and the t1/2 is ≥ 19.2 h. Besides, in experiment [3], the 50% effective concentration (EC50) amounted to 0.903 nM and the “Ratio of MFI (100 nM/0 nM)” value worked out at 199. Besides, the “Ratio of 100 nM antibody binding HEK293-hLAG3 to HEK293 cells” value in experiment [4] amounted to 17.8.

For the origin of these results see patent US20170101472A1 (Regeneron, published 2017).
